# Results as given in the supplement of paper PMC9732359.
# ± gives the uncertainty stated by the source.
# Test: protein stability index of a GFP-peptide fusion (yeast GPS) (PSI 1-4); higher = more stable; sorted into four equal gates, so the index is relative within each strain
# Method in brief: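 For each peptide, the protein stability index sums the read frequency in every gate after multiplying it by the gate number. Read frequencies came from plasmids that were PCR-amplified from each gate and Illumina-sequenced, with reads assigned to strains by barcodes. The gates were four equal bins of GFP/Cherry fluorescence ratio applied to mid-log yeast in leucine-free medium carrying a pooled library of tiled 17-residue yeast protein peptides fused downstream of GFP on a Cherry-expressing plasmid.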
Sequence,protein stability index (doa10∆),protein stability index (pdr5∆),protein stability index (san1∆),protein stability index (ubr1∆)
FILELEHKTPELISFKE [YIL149C/MLP2],2.86 ± 0.081,3.05 ± 0.086,2.96 ± 0.1,3.29 ± 0.086
DIWSISKKRQAEKLVPL [YML031W/NDC1],2.64 ± 0.089,2.78 ± 0.076,2.35 ± 0.073,2.55 ± 0.062
LEYNVALNDVYLDADVA [YML031W/NDC1],3.32 ± 0.13,3.33 ± 0.13,3.05 ± 0.12,–
CYFRDFEYCRIDGSTSH [ISW2],2.51 ± 0.071,2.5 ± 0.079,2.48 ± 0.069,1.88 ± 0.042
SPKPYAVKYGLNHVVAL [RPL8A],2.22 ± 0.066,2.42 ± 0.06,2.44 ± 0.071,2.08 ± 0.044
FEKVGSHLYKARLDGHD [RPN14],2.92 ± 0.26,3.51 ± 0.19,–,3.31 ± 0.14
EELFTQLFHSMSIVFGD [UBP6],3.17 ± 0.087,3.35 ± 0.087,3.38 ± 0.05,2.98 ± 0.089
EFIPHSTEYMMQFAKSK [RPN6],–,3.28 ± 0.17,2.8 ± 0.1,1.91 ± 0.14
PRIQRADPVALYLGLKR [RPB5],1.82 ± 0.11,2.42 ± 0.1,–,2.28 ± 0.083
TKPAIRRLARRGGVKRI [HHF1],3.04 ± 0.13,3.12 ± 0.16,3 ± 0.16,3.45 ± 0.1
STTTSVNGSTTAGVGST [SIN4],3.06 ± 0.044,2.99 ± 0.048,3.07 ± 0.041,2.85 ± 0.036
KERKLRENIAMLKRFFP [SMC1],2.38 ± 0.18,2.52 ± 0.14,2.65 ± 0.23,2.59 ± 0.16
KAKKLIQSLPPTLKVNR [RPL38],2.13 ± 0.039,2.18 ± 0.039,2.02 ± 0.048,2.27 ± 0.036
RLWLKKVMEEEEQDCKC [POP8],2.5 ± 0.095,2.9 ± 0.084,3.07 ± 0.079,2.8 ± 0.083
LQNCCIIDVGTHHTDII [ARP9],1.43 ± 0.11,1.9 ± 0.07,1.51 ± 0.15,2.28 ± 0.066
CLEDPEKPFNENRFQDT [POP4],2.68 ± 0.15,3.02 ± 0.16,2.64 ± 0.24,3.03 ± 0.099
SVAPTKQREIVKAFLSI [NUT1],2.1 ± 0.11,1.94 ± 0.073,2.41 ± 0.13,2.04 ± 0.063
GRVKYTKRQKHFAWLPT [POP1],2.27 ± 0.051,2.48 ± 0.081,2.3 ± 0.084,2.55 ± 0.039
KRCVGVILGDANSSTIR [RPN8],2.85 ± 0.042,2.77 ± 0.051,2.82 ± 0.061,2.94 ± 0.039
RVLQLLAVIMDNIGEID [YCG1],1.93 ± 0.073,1.63 ± 0.067,1.46 ± 0.17,1.52 ± 0.046

Sequence,protein stability index (doa10∆),protein stability index (pdr5∆),protein stability index (san1∆),protein stability index (ubr1∆)
SLNEVGTLKVILNLYSS [YML103C/NUP188],1.93 ± 0.12,2.11 ± 0.29,–,2.4 ± 0.11
FHSEISPDSTVNRSVVV [YAR002W/NUP60],1.75 ± 0.11,1.76 ± 0.052,1.76 ± 0.13,2.16 ± 0.059
TIRYLMQKQHEMKTQAA [SNF6],2.83 ± 0.049,2.98 ± 0.051,2.99 ± 0.046,2.9 ± 0.032
IERIGHLLSINYGEKEE [PCI8],1.32 ± 0.06,1.33 ± 0.055,1.2 ± 0.092,1.18 ± 0.049
DRMAKYLHIRDKILQLN [PGD1],2.32 ± 0.12,2.01 ± 0.079,1.76 ± 0.099,1.77 ± 0.049
VETKLETKVDELRYQSH [DSN1],2.86 ± 0.088,3.22 ± 0.074,3.31 ± 0.058,3.08 ± 0.073
GGLQKGKLVVSQEMVPR [SIR3],3.03 ± 0.07,2.83 ± 0.13,2.32 ± 0.076,3.23 ± 0.12
PSANNSSSIKSTGPTGA [RRP4],3.32 ± 0.038,3.28 ± 0.043,3.349 ± 0.029,3.348 ± 0.032
SFTYELKQHNQNNLPPN [BRR2],2.95 ± 0.094,3.21 ± 0.087,2.78 ± 0.1,2.9 ± 0.12
KKRLMDIDDELNELETL [SMC2],3.05 ± 0.058,3.17 ± 0.067,3 ± 0.034,3.37 ± 0.035
HEAKERIRQKEVTAGEA [SNF6],3 ± 0.18,–,2.67 ± 0.25,2.6 ± 0.074
FEEDSDLALPPPPPPPP [PRP8],3.08 ± 0.063,3.25 ± 0.066,3.27 ± 0.072,3.23 ± 0.062
RADVEDESNDIDMIADE [RPC37],2.95 ± 0.073,2.72 ± 0.057,2.8 ± 0.08,3.27 ± 0.066
TKVNNQLIKVAVHNGDR [RPL9B],1.92 ± 0.074,1.52 ± 0.06,1.78 ± 0.086,2.4 ± 0.029
TFVVEQLIKQSIKNNVA [SNU114],–,–,–,2.38 ± 0.27
QEHNIQDSNVMPGSQIN [SNF2],3.11 ± 0.074,3.11 ± 0.057,2.68 ± 0.07,3.31 ± 0.062
ENPTDNFIIWINSIDTT [GRR1],2.44 ± 0.045,2.51 ± 0.053,2.61 ± 0.049,2.74 ± 0.048
ATGHRVLIFFQMTQIMD [SNF2],1.84 ± 0.082,2.51 ± 0.069,2.72 ± 0.094,2.64 ± 0.13
GTLDKNSQTVSGTPITQ [SNF2],2.83 ± 0.055,2.71 ± 0.055,2.69 ± 0.052,2.65 ± 0.044
